Reference: the supplement of paper PMC10126150
± gives the standard deviation of the averaged measurements.

The sequences below were run on ATP (assay: switch fluorescence ratio, 500 uM ATP over buffer (Cy3 cluster intensity, sum of 5 cycles each) (fold (ratio)); higher = stronger signal-on switching upon ATP binding; sequences stand for … in TCGTCGGCAGCGTCAGATGTGTATAAGAGACAGTTTTTTTTTTTTTTTTTTTTTTTTT…TC). Settings: aptamer strand: ATP DNA aptamer (quencher-CACCTGGGGGAGTATTGCGGAGGAAGG + anchor), 100 nM annealed; ATP concentration: 500 uM.
Procedure, shortened: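 Clusters with intensities outside 100-1000 RFU were excluded. The remaining Cy3-labelled switching-strand clusters on a modified Illumina MiSeq flow-cell had been annealed to 100 nM quencher-labelled ATP aptamer and imaged in selection buffer, then after 15 min with 500 uM ATP at 22 °C, for five cycles separated by NaOH stripping and re-annealing. The fluorescence ratio, averaged per switch-domain sequence, is each cluster's summed target-cycle Cy3 intensity over its summed buffer-cycle Cy3 intensity.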
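Note: ATP exposure 15 min at 22 °C before imaging.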

Sequence | switch fluorescence ratio
TAGCAATGGC | 2.42 ± 0.14
TTGTTTTTGC | 0.9959 ± 0.0089
CACATTATGA | 1.04 ± 0.014
AACGAATAAA | 0.994 ± 0.025
TAAGCGGGGG | 0.999 ± 0.017
CGTATATTAG | 0.96 ± 0.014
ATGTTGTTGT | 0.981 ± 0.033
TATTTTTT | 1.02 ± 0.027
TCCAGGGGGC | 1.18 ± 0.16
ACATGTGGGG | 1.04 ± 0.025
ACGGACGTTC | 1.15 ± 0.015
GTGGGTTGGA | 0.993 ± 0.033
TTCTATACAT | 1.04 ± 0.054
CTGTTATGTG | 0.952 ± 0.015
ATCACCGCGC | 1.59 ± 0.093
TTATGGTAGC | 0.995 ± 0.015
TGTGTTCCAA | 1.002 ± 0.0047
TACGGGGCTG | 1.01 ± 0.11
CGGGGGGCCT | 1.01 ± 0.028
TTGTGGGGTA | 1 ± 0.023
TAAGTATTGT | 1.012 ± 0.0084
TTGGTTTGTA | 1 ± 0.065
AGTCCAATGT | 0.993 ± 0.021
AGTATATAGG | 0.986 ± 0.018
TTCGGGGCGG | 0.934 ± 0.071

Sequence | switch fluorescence ratio
AGGTCAGAGA | 1 ± 0.028
TTTTTCCCCG | 1.33 ± 0.6
CTCTGAAGCT | 1.06 ± 0.017
CTGATCAATG | 1.1 ± 0.02
CTTGTGAGGG | 0.985 ± 0.037
TTCGGGTAAT | 1.08 ± 0.11
GGTTACAATT | 0.982 ± 0.032
ATCATTGGG | 1.014 ± 0.008
ATTCTGTTTG | 0.987 ± 0.043
AGAACCTGGG | 0.981 ± 0.055
TAGTGTTTGG | 1.02 ± 0.073
CTTGGAGTTA | 0.997 ± 0.025
TTGCTGAGCC | 0.96 ± 0.024
TGAAAGTTGG | 0.997 ± 0.013
ATTTTTAGCA | 0.99765 ± 0.00045
GAATAGAGGT | 1.02 ± 0.037
AAGGCATTAT | 1.005 ± 0.0081
TCGTAGAGTG | 0.954 ± 0.026
TGTGTGCGGC | 1 ± 0.028
TTTATGTCGT | 0.986 ± 0.038
GATGTAGCTT | 1.029 ± 0.0033
AATTTTTGCT | 0.966 ± 0.011
ACCTTTTTCG | 1.07 ± 0.0096
CGTCAGTGCA | 1.01 ± 0.024
CGTATTTTAG | 1 ± 0.029

Sequence | switch fluorescence ratio
AAGCCAGATG | 1.076 ± 0.0092
GTGTGAAAGG | 1 ± 0.013
CATTTCTTG | 0.985 ± 0.029
GGCCCTGCGA | 1.06 ± 0.056
GAAGGATAGG | 0.975 ± 0.029
AGGGGTTCGG | 0.992 ± 0.026
ATTGTAAGTG | 1.03 ± 0.088
TTGCACTAAC | 1.22 ± 0.05
CTCTTTCGAT | 1.03 ± 0.03
TTCTTAATGC | 0.985 ± 0.024
ACTAAAGGG | 1.02 ± 0.028
ATGGCGGATG | 1.01 ± 0.063
ATATTAAAAG | 0.9959 ± 0.0043
TTGCTACCAC | 1.07 ± 0.036
AATAGGGACC | 1.07 ± 0.089
TTTGAGGCCT | 0.99 ± 0.025
CGGGGGATTA | 1.02 ± 0.049
AAGAAAAGGA | 1.02 ± 0.017
ATAGTAATCT | 0.993 ± 0.056
AATCGGGCCA | 0.987 ± 0.018
TCAGAGGTTT | 0.973 ± 0.024
CGCATTTTTT | 1.13 ± 0.12
TTGGTTGAAG | 1.02 ± 0.013
CAGCAGGGGT | 1.24 ± 0.15
GTATAAGAGG | 0.991 ± 0.019

Sequence | switch fluorescence ratio
GGAATAGGGG | 0.991 ± 0.018
TATGATGGAA | 0.966 ± 0.024
CGGCGGGGTG | 1.04 ± 0.055
GATTCTGGTT | 0.94 ± 0.029
AATGATATCG | 1.03 ± 0.013
CAGGGATTTA | 0.978 ± 0.024
ATGGTTGGAC | 0.9925 ± 0.0094
AGGAAACTTA | 0.988 ± 0.0076
GATGAAGGGA | 0.979 ± 0.013
GCCCACGCTG | 1.02 ± 0.011
TCACCCGTTT | 0.993 ± 0.016
TGGTGGGATT | 0.995 ± 0.012
ACCCATGCTT | 1.06 ± 0.013
CGGTTTTTAT | 0.983 ± 0.018
GGGGGCCGCT | 1.02 ± 0.036
TGGCGGTTGC | 0.955 ± 0.013
CCTGTTCGCT | 1.21 ± 0.014
ATAGAGGCTA | 0.992 ± 0.025
AATAAAGGTT | 1.1 ± 0.18
TAGGGGGGCG | 1.01 ± 0.085
TTCGTTAGAG | 0.9796 ± 0.0014
CCGCGGGTTC | 1.55 ± 0.45
TTGCGTAGGC | 0.994 ± 0.034
AAGAAGGGGA | 1.22 ± 0.31
TTAGGACCCT | 1.01 ± 0.041

Sequence | switch fluorescence ratio
TAACATCGGT | 0.996 ± 0.021
GGGGAGAGAC | 1.04 ± 0.041
ATTGCGCTTC | 1.063 ± 0.0095
CAATAAAGCT | 1.07 ± 0.041
TGGTATCGGC | 0.992 ± 0.01
TTGTGGGTAC | 1.0042 ± 0.0004
AATTATTCGA | 1.02 ± 0.011
GGAGGTGTTA | 1.01 ± 0.031
TCACTCATTT | 1.01 ± 0.019
CAGTTATGTT | 0.993 ± 0.036
TGTGTACCG | 1.01 ± 0.065
CTAGTCGTAC | 1.03 ± 0.068
AGCCGAGTTC | 1.01 ± 0.049
ATTTGAATA | 0.984 ± 0.022
GAATGGGTAG | 0.9961 ± 0.0042
GGTTTCGGAA | 1 ± 0.034
TTAATTAAAG | 0.993 ± 0.017
CGGGCGGGGG | 1.06 ± 0.12
TGGAGGACTA | 1.14 ± 0.13
TTGAAATCGA | 1.01 ± 0.03
GAATGAGTCT | 1.01 ± 0.091
CGGCGAGAAC | 1.045 ± 0.0023
CCTAATGAA | 1.2 ± 0.28
TGGGTGATAT | 0.989 ± 0.018
TTAACGAGTG | 0.999 ± 0.022

Sequence | switch fluorescence ratio
AGCATACCTT | 1.11 ± 0.17
TCGGGGATGA | 1.067 ± 0.0092
AACTAGGGTG | 1.12 ± 0.013
CGGCCAGCTG | 1.03 ± 0.03
AGGGTCGGGC | 1.027 ± 0.0061
TATACTCAGC | 1.03 ± 0.014
TTTTGGAATA | 1.02 ± 0.059
CTTGGAGGCG | 1.01 ± 0.036
GGAAAATGTA | 1.023 ± 0.0063
TAAAGGGCAC | 1.011 ± 0.0093
GGGGGAGCTG | 0.978 ± 0.019
TGCGAGGGTT | 1.01 ± 0.093
CATTGATGAA | 0.988 ± 0.06
GGGCATGCAT | 1.019 ± 0.0086
CTCGCGACGA | 1.06 ± 0.019
AAAGGGAAGT | 0.983 ± 0.048
AGAGGGGTCA | 1.01 ± 0.02
TGAAGGGTTC | 1.12 ± 0.24
TATTATTCTG | 0.986 ± 0.023
AAGTTGGAGT | 1.02 ± 0.027
AAGAGACTGT | 1.002 ± 0.0034
GGGGGCAACG | 1.03 ± 0.1
TTTTTTCAAG | 0.978 ± 0.019
GTCGTATTGG | 1.03 ± 0.03
CCAGTGGTTG | 0.9817 ± 0.0056

Sequence | switch fluorescence ratio
CTTTGGGGAT | 1.05 ± 0.12
CGTGGTAGGG | 0.992 ± 0.035
GGTCGGGGCA | 1.02 ± 0.025
CCCATTGTAA | 1.04 ± 0.025
TCATATGGTT | 0.999 ± 0.019
TTATTCCCGT | 0.985 ± 0.064
ATGGGCGGGC | 1.01 ± 0.03
CTTCTGTCGT | 1.034 ± 0.0018
AAAAGGCCGT | 1.02 ± 0.0058
TGTCTTTTTT | 1.01 ± 0.029
TACTTTGGGA | 0.98 ± 0.043
AGGGGGCATT | 0.98 ± 0.011
TCCTTATAGG | 1 ± 0.044
TGGAAGGATT | 1.01 ± 0.015
TTTTTAAAAG | 0.988 ± 0.011
ATCGTGGGGA | 1.012 ± 0.0075
GGGGTCCTGG | 0.943 ± 0.022
TTATAAAGAT | 0.992 ± 0.035
GGAATCTGTT | 0.993 ± 0.068
TGACATTATA | 1.01 ± 0.032
CTCAGCCCGT | 1.03 ± 0.095
CATCAGGTTT | 0.991 ± 0.0015
GTTGCATGGG | 0.963 ± 0.012
AAGCAGGGTG | 1 ± 0.04
TATTATGTGG | 0.961 ± 0.01

Sequence | switch fluorescence ratio
GCCGTAATTA | 1.09 ± 0.017
GGTAATTGTG | 0.987 ± 0.016
GGACGGTAGG | 0.979 ± 0.011
CCAGGCTATT | 1.04 ± 0.026
AGCTTTTGAA | 1.006 ± 0.0026
CTAAATTCGT | 0.987 ± 0.08
TTCCTGGTCA | 0.997 ± 0.012
ATGGAGTTTG | 0.9901 ± 0.0057
CGTTTATGTG | 0.9953 ± 0.0089
CCGGATGGAG | 1.02 ± 0.036
GACCACGGTC | 1.02 ± 0.041
CGTGGCCTGT | 0.994 ± 0.029
TTTGGATGAA | 1.05 ± 0.013
GCTAGAGGGT | 1.02 ± 0.027
GGGCAGGGAG | 1 ± 0.017
TTGTTCTTAA | 1.05 ± 0.11
GGGGGCAAAT | 0.9935 ± 0.0068
GCGGGGGCAT | 0.964 ± 0.012
TTAGCTAGTT | 0.987 ± 0.042
TAGTTGGTGG | 0.954 ± 0.046
CATCGCATCT | 1.79 ± 0.056
GAGCTTTGTT | 0.984 ± 0.018
GTCATAACAT | 1.018 ± 0.0065
CGTTGTTTGG | 0.966 ± 0.058
CAGAGAAAGT | 0.973 ± 0.038
